Experimental data reported in publication PMC10838314, “Exploring TRF2-Dependent DNA Distortion Through Single-DNA Manipulation Studies”.

B1: non-telomeric hairpin (structured_DNA)
DNA: CTTGTGCACAGACTCGTTTGGTTATCGAAGGTAAGGTCTGGCGAACGGTGTATTACCGGTTTGCTACCAGGAAAAAAAACCTGGTAGCAAACCGGTAATACACCGTTCGCCAGACCTTACCTTCGATAACCTTTGCAGCCAGGTCAGTAGCGAC
modifications: 5' phosphate
B2: 5-repeat telomeric hairpin (structured_DNA)
DNA: CTTGTGCACAGACTCGTTTGGTTATCGAAGGTTAGGGTTAGGGTTAGGGTTAGGGTTAGGGTGCTACCAGGAAAAAAAACCTGGTAGCACCCTAACCCTAACCCTAACCCTAACCCTAACCTTCGATAACCTTTGCAGCCAGGTCAGTAGCGAC
modifications: 5' phosphate

How the values were obtained:
Details in all cases: protein: recombinant, tags: N-terminal His6 removed by TEV, chain copies: 2, label: 5' biotin and 3' thiol via ligated handles, 52 bp stem, 8 nt loop
hTRF2 full-length [1] = biological target: T1, hTRF2 full-length (Homo sapiens, UniProt Q15554 43-542); test: single-molecule magnetic tweezers hairpin unzipping; Hill n=1.2±1.7; Magnetic tweezers: 150 mM KCl (stretching; full buffer, pH and temperature not in material). EMSA: 25 mM HEPES-Na pH 7.5, 50 mM NaCl, 4 C, 30 min
hTRF2 full-length [2] = biological target: T1, hTRF2 full-length; test: single-molecule magnetic tweezers hairpin unzipping; Hill n=1.0±0.3; Fb 7 pN; Magnetic tweezers: 150 mM KCl (stretching; full buffer, pH and temperature not in material). EMSA: 25 mM HEPES-Na pH 7.5, 50 mM NaCl, 4 C, 30 min
TRFH (TRF2 42-245) = TRFH (TRF2 42-245) (Homo sapiens, UniProt Q15554 84-287); test: single-molecule magnetic tweezers hairpin unzipping; no unzipping delay up to 5 uM; very dynamic binding not excluded; Magnetic tweezers: 150 mM KCl (stretching; full buffer, pH and temperature not in material). EMSA: 25 mM HEPES-Na pH 7.5, 50 mM NaCl, 4 C, 30 min
[3] = biological target: TRF2 45-500 (deltaB-TRF2) (Homo sapiens, UniProt Q15554 87-542, del43-86); test: single-molecule magnetic tweezers hairpin unzipping; Hill n=1.0±0.2; Magnetic tweezers: 150 mM KCl (stretching; full buffer, pH and temperature not in material). EMSA: 25 mM HEPES-Na pH 7.5, 50 mM NaCl, 4 C, 30 min
TRF2 45-500 (deltaB-TRF2), sequence (Q15554 87-542, stated change not applied): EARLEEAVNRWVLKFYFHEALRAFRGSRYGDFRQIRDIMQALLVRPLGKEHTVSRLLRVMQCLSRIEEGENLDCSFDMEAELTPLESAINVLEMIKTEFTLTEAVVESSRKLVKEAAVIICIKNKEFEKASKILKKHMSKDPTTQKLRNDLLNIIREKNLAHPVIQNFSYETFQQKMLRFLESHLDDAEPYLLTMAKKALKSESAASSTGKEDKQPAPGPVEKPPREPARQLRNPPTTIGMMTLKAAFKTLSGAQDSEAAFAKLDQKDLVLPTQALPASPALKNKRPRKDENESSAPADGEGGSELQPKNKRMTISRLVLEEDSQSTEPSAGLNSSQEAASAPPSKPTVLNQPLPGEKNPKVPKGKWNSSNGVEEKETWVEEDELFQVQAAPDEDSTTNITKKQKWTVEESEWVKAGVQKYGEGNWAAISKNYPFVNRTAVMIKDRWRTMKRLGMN

T1 sequence (Q15554 43-542): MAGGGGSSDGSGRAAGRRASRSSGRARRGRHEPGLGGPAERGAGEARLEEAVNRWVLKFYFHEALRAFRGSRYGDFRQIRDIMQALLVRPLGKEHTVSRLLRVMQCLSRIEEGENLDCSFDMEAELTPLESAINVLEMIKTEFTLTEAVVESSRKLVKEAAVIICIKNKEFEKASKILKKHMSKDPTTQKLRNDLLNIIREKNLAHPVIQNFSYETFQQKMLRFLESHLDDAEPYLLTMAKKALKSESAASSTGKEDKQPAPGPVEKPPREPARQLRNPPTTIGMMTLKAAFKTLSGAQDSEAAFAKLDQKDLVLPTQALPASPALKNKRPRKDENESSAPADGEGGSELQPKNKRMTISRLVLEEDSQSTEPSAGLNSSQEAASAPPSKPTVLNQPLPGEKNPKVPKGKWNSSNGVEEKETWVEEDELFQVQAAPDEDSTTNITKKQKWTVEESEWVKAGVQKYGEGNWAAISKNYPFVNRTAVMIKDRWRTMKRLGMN
TRFH (TRF2 42-245), sequence (Q15554 84-287): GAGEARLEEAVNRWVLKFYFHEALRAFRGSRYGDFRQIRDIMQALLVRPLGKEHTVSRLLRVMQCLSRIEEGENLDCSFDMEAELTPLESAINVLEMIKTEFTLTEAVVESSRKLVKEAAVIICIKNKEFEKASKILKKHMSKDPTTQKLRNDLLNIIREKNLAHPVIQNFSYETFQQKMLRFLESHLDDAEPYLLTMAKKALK

Binder | Kd (hTRF2 full-length [1]) | Kd (hTRF2 full-length [2]) | binding result (TRFH (TRF2 42-245)) | Kd [3]
B1 | 76.8 ± 31.7 nM |  |  | 
B2 |  | 10.3 ± 2.9 nM | no binding | 284 ± 70.5 nM
